{
  "source": "paper PMC12024540",
  "about": "“Peptide-Based Regulation of TNF-α-Mediated Cytotoxicity” (Biomolecules, 2025)",
  "molecules": {"B1": {"name": "TNFR1: Human TNFR1 (soluble) recombinant protein applied with TNF-α in the caspase 3/7 assay (protein)", "chain": "SVCPQGKYIHPQNNSICCTKCHKGTYLYNDCPGPGQDTDCRECESGSFTASENHLRHCLSCSKCRKEMGQVEISSCTVDRDTVCGCRKNQYRHYWSENLFQCFNCSLCLNGTVHLSCQEKQNTVCTCHAGFFLRENECVS", "modifications": "fluorescent label from the Monolith Protein Labeling Kit RED-NHS 2nd Generation (labelled target in MST)", "notes": "Human TNFR1 (soluble) recombinant protein applied with TNF-α in the caspase 3/7 assay"}},
  "test_system": "caspase-3 and caspase-7 activities in L929 cells",
  "assay": "Caspase-Glo 3/7 apoptosis assay on TNF-α-stimulated L929 cells",
  "format": "cell-based, mouse",
  "conditions": "at 10 nM and 100 nM with TNF-α 1 ng/mL",
  "protocol": "Apoptosis was detected by measuring caspase-3 and caspase-7 activities with the Promega Caspase-Glo 3/7 Assay Kit. A total of 1.5 × 10^4 cells were seeded onto opaque 96-well tissue culture plates. After 24 ± 2 h of incubation, cells were stimulated with the same concentration of actinomycin D and TNF-α with different peptide concentrations. After 4 h of incubation in 5% CO2 at 37 °C, freshly prepared caspase 3/7 reagent was added to each well, followed by incubation for 1 h at room temperature. Luminescence was measured using a plate reader (CLARIOstar Plus, BMG Labtech, Ortenberg, Germany). Fold change was calculated from the ratio of luminescence of cell control to that of TNF-α-treated cells.",
  "data": [
    {"molecule": "B1", "values": [
      {"measurement": "effect on caspase 3/7 activity", "value": "significantly reduced caspase 3/7 activity"}
    ]}
  ]
}
